Results on twelve molecules are retold here after patent US20230139700A1 (BIO THERA SOLUTIONS, published 2023).

Substitutions are numbered along the chain they refer to.

Experiment [1] has as its target T1, human OX40 on cells (human, UniProt P43489 29-277).
T1 sequence (looked up): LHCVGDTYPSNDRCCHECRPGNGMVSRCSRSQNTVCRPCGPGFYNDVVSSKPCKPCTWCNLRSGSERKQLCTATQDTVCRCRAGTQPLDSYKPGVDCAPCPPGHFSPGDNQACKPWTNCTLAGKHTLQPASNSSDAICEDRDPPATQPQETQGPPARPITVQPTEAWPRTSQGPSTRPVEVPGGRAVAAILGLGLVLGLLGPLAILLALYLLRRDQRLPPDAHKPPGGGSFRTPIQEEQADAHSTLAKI
Kind of experiment: cell-based or functional assay.

For experiment [2], the target named is T2, hOX40-his (human, UniProt P43489 29-216).
T2 construct: range 1-216; Made in HEK293; The stated range starts at residue 1 (holds the signal peptide of the entry); no cleavage site stated; not shown: his tag
T2 sequence (looked up): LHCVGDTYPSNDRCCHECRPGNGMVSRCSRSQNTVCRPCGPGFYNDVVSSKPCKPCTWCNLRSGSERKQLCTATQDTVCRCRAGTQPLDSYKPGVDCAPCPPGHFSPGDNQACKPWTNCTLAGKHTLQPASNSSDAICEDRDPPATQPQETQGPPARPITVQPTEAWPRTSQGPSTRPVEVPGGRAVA
The experiment can be described thus: BIACORE, antibody on the probe, 20 nM OX40-his. An excerpt:
(§1) Table 10 illustrates the CDRs of eight full antibodies containing these amino acid mutations, and the rest of the sequences are the same as those of antibody-F23-32K. […] The sequences of the anti-OX40 antibody (antibody M) are shown in Table 12; wherein, the expression cells used for the antibodies above (including antibody M) are CHO-S cells, and the method for preparing the antibody M-KF is as follows: the antibody M was identical to the antibody M-KF in terms of amino acid sequence and was expressed by the CHO cell line in which the fut8 gene was knocked out (the content of fucose in antibody M-KF was about 0%).
(SPR reads the build-up and loss of mass on a sensor chip optically.)

In experiment [3] the target is T1, human OX40 on cells. The experiment can be described thus: flow cytometry (MFI) on Jurkat cells overexpressing OX40, antibody titration.
Source text: as §1
(In flow cytometry, cells or beads pass a laser one at a time.)

The target in experiment [4] is T1, human OX40 on cells. The experiment can be described thus: flow cytometry (MFI) on Jurkat cells overexpressing OX40, antibody titration; the unit nM comes from the legend paragraph 95.
Source text: as §1

For experiment [5], the target named is T1, human OX40 on cells. The experiment can be described thus: flow cytometry on Jurkat-hOX40 cells, 3-fold dilutions from 50 nM, MFI. The procedure:
Antibody-F23-4k and antibody-F23-32k, as well as two control antibodies 11D4 and OX40mAb24 at different concentrations were used to incubate Jurkat-hOX40 cells.

Experiment [6] has as its target T3, hOX40-FC (human, UniProt P43489 29-216).
T3 construct: range 1-216; Made in HEK293; The stated range 1-216 starts at residue 1, so it holds the signal peptide of the entry; also called human OX40 extracellular region fused to human IgG1-Fc; not shown: human IgG1-Fc, UniProt P01857, residues 104 to 330
T3 sequence (looked up): T2 sequence (looked up)
The experiment can be described thus: BLI (ForteBio), biotinylated antibody on SA sensor, OX40-Fc 50 nM bivalent, 1:1 model. As to the method:
The ForteBio affinity assay was conducted according to the existing conventional method (Estep, P et al., MAbs, 2013, 5(2): 270-8). The brief process is as follows: the sensor was equilibrated offline in an assay buffer (such as PBS) for 20 min and then subjected to online test for 60 s to establish a signal baseline. The purified antibodies obtained as described above were each loaded online onto a corresponding sensor (ForteBio), and finally the ForteBio affinity assay was conducted. The biotinylated candidate antibodies were adsorbed with the SA sensor, and binding and dissociation of hOX40-FC were each detected for about 5 min. The results are shown in Table 4, and N.D indicates not detected in Table 4. Finally, kinetic analysis was performed for all by using a 1:1 binding model.
Background: Biolayer interferometry detects binding as a change in optical thickness at a sensor tip.

Experiment [7] addresses T1, human OX40 on cells. The experiment can be described thus: flow cytometry on Jurkat-hOX40 cells, 100 nM antibody, secondary antibody; parental Jurkat as control. The procedure: Jurkat cells overexpressing human OX40 (Jurkat-hOX40 cells) were generated by transfecting pCMV vectors with human OX40 cDNA. Jurkat-hOX40 cells (0.5×10⁶ cells) were incubated with 100 nM experimental antibody in PBS containing 0.1% BSA on ice for 40 min. The cells were then washed twice and incubated with the secondary antibody in PBS containing 0.1% BSA on ice for 25 min. The cells were washed twice and analyzed by flow cytometry on Accuri C6 system (BD Biosciences).

B1: Antibody M (antibody, human IgG1, kappa, V domains shown)
VH: QVQLVESGGGVVQPGESLRLSCAASGFTFSSYGMHWVRQAPGKGLEWVAVIWEDGSNQYYADSVKGRFTISRDNSKNTLYLQMNSLRAEDTAVYYCAKDNQDTSPDVGIDYWGQGTLVTVSS
VL: DIQMTQSPSSLSASVGDRVTITCRASQNISPFLNWYQQKPGKAPKLLIYAAVGLQSGVPSRFSGSGSGTDFTLTISSLQPEDFATYYCQQYTDYPLTFGGGTKVEIKR
notes: also called antibody No. 12; anti-OX40 antibody (antibody M)
As to B1, the “NFκB reporter in Jurkat-hOX40-NFκB-2 cells with Raji cells, activation peak against 11D4” value in experiment [1] was around 2.5 fold. In experiment [2], the Kd is 0.16 nM, the “fold higher affinity than 11D4” value is around 9 fold, the “fold higher affinity than OX40mAb24” value is around 21 fold and the “fold increase of affinity (against antibody-F23-32K)” value is around 70 fold. In experiment [2], the koff came out at 9.77e-05 s⁻¹ and the on-rate constant (kon) was determined as 610000 M⁻¹ s⁻¹. The “EC50 (read off the curve)” value in experiment [3] was around 1 nM. For the same molecule, in experiment [4], the EC50 is 1.2 nM.

B2: Antibody-F23-4k (antibody, human IgG1, kappa, V domains shown)
VH: B1 VH with V5E, W52S, E53Y, T103S
VL: DIVMTQSPSSLSASVGDRVTITCRASQDILGYVNWYQQKPGKAPILLIYATSGLQGGVPSRFSGSGSGTDFTLTISSLQPEDFATYYCQQYNSYPLTFGGGTKVDIKR
notes: also called antibody No. 4
Molecule B2 registered a half-maximal effective concentration (EC50) in experiment [5] of 1.5 nM. This molecule yielded a Kd in experiment [6] of 0.6 nM.

B3: Antibody-F23-7k (antibody, human IgG1, kappa, V domains shown)
VH: B1 VH with V5E, W52S, E53Y, T103S
VL: B1 VL with N28S, P31S, F32Y, I48M, V52S, G53S, Q89L, Y91I, T92D, D93S
notes: also called antibody No. 5
B3: the Kd in experiment [6] was determined as 2 nM.

B4: Antibody-M5-5k (antibody, human IgG1, kappa, V domains shown)
VH: QVQLVESGGGLIQPGGSLRLSCTASGFTFSTYAMSWVRQAPGKGLEWVSAISGTGDWASYADSVKGRFTTSRDNSRNTLYLQMNNLRDEDTAIYYCAKSSSTVATDFDYGMDVWGQGTLVTVSS
VL: ETTLTQSPSTLSASVGDRVTITCRASEEIGSWLAWYQQTPGKAPKRLIYEASSLQSGVPSRFSGSGSGTDFTLTISSLQPEDFATYYCQQYGSYPPTFGQGTKVEIKR
notes: also called antibody No. 8
As for B4, in experiment [6], the Kd was 2 nM.

B5: Antibody-M5-7k (antibody, human IgG1, kappa, V domains shown)
VH: B4 VH
VL: DIVMTQSPSTLSASVGDRVTVTCRASEDIGRWLAWYQQKPGKAPKRLIYAASSLQSGVPSRFSGSGSGTEFTLTISSLQPEDFATYYCQQYYNYPPTFGQGTKVEIKR
notes: also called antibody No. 9
Consider B5, for which the Kd in experiment [6] came out at 0.4 nM.

B6: Antibody-A2 (antibody, human IgG1, kappa, V domains shown)
VH: QVQLVESGGGLIQPGGSLRLSCAASGFTVSSNYMSWVRQAPGEGLEWIATIYYGGSTYYNPSLKSRVTISADMSKNQFSLKLSSMTAADTAVYYCARVVVPGYFDLWGRGTLVTVSS
VL: SSELTQDPAVSVALGQTVSITCQGDSLRSYYASWYQQKPGQAPVPVIYGKNNRPSGIPDRFSGSSSGNTASLTITGAQAEDEADYYCHSRDSSGKYVFGVGTKLTVLR
notes: also called antibody No. 11
In experiment [6], B6 showed a Kd of 9 nM.

B7: Antibody-F15-1L (antibody, human IgG1, kappa, V domains shown)
VH: QVQLRESGGGLVQPGGSLRLSCAASGFTFSSYAMNWVRQAPGKGLEWVSAISGSGGNTYYADSVKGRLTISRDNSKNTLYLQMNSLRAEDTAVYYCAKDPLGSSWFEYFQHWGQGTLVTVSS
VL: QSALTQPASVSGSPGQSITISCTGTSSDVGGYNYVSWYQKHPGKAPKLMIYEVSNRPSGVSNRFSGSKSANTASLTISGLQAEDEADYFCSSYSSSSTLVVFGGGTKLTVLR
notes: also called Antibody-F15-IL; antibody No. 3
In experiment [6], B7 showed a Kd of 3 nM.

B8: 11D4 (antibody, V domains shown)
VH: EVQLVESGGGLVQPGGSLRLSCAASGFTFSSYSMNWVRQAPGKGLEWVSYISSSSSTIDYADSVKGRFTISRDNAKNSLYLQMNSLRDEDTAVYYCARESGWYLFDYWGQGTLVTVSS
VL: DIQMTQSPSSLSASVGDRVTITCRASQGISSWLAWYQQKPEKAPKSLIYAASSLQSGVPSRFSGSGSGTDFTLTISSLQPEDFATYYCQQYNSYPPTFGGGTKVEIKR
B8: in experiment [2], the Kd worked out at 1.31 nM, the off-rate (koff) was found to be 0.000461 s⁻¹ and the on-rate constant (kon) came to 353000 M⁻¹ s⁻¹. The molecule further yielded an EC50 in experiment [5] of 1.5 nM. Also, the “EC50 (read off the curve)” value in experiment [3] was around 1 nM. The same molecule yielded an EC50 in experiment [4] of 1.17 nM.

B9: Antibody-FE-16H (antibody, human IgG1, kappa, V domains shown)
VH: QVQLVESGGGLVQPGGSLRLSCAASGFTFSSYAMSWVRQAPGKGLEWVSAISGSGGSTYYADSVKGRFTISRDNSKNSLYLQMNSLRAEDTAVYYCARGDSSSWFIFQDWGQGTLVTVSS
VL: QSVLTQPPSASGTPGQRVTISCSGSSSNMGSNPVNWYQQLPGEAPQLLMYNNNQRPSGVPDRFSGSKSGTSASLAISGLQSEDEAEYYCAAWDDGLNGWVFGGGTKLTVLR
notes: also called antibody No. 10
Turning to B9, the Kd in experiment [6] amounted to 3 nM.

B10: Antibody-A6-1k (antibody, human IgG1, kappa, V domains shown)
VH: QVQLQRSGGGLVQPGGSLRLSCAASGFTFSSYGMTWVRQAPGKGLEWVSAISNSGGSTYYADSVKGRFTISRDNSKNTLYLQMNSLRAEDTAVYYCAKDGPYFDYWGQGTLVTVSS
VL: DIQMTQSPSTLSASVGDRVTITCRVSQGIGDDLGWYQQKPGKAPKLLIYKASNLESGVPSRFSGSGSGTDFSLTISSLQPEDFATYFCQQAHSFPPTFGGGTKLEIKR
notes: also called Antibody-A6-lk; antibody No. 7
For the molecule B10, the Kd in experiment [6] amounted to 4 nM.

B11: Antibody-X35-6L (antibody, human IgG1, kappa, V domains shown)
VH: EVQLVESGGGLVQPGRSLRLSCAASGFTFDDYAMHWVRQAPGRGLEWVSGIGGSGGSTYYADSVKGRFTISRDNSKNTLYLQMNGLGAEDTAVYYCAKDRGYGDYYWYFDLWGRGTLVTVSS
VL: SSELTQPASVSGSPGQSITISCTGTSSDVGGYNYVSWYQQHPGKAPKLMIYDVSNRPSGVSNRFSGSKSGNTASLTISGLQAEDEADYYCSSYTTSSTLVFGGGTKVTVLR
notes: also called antibody No. 2
As to B11, in experiment [6], the Kd was below 0.1 nM.

B12: Antibody-F10 (antibody, human IgG1, kappa, V domains shown)
VH: QVQLQESGGGLEKPGRSLRLSCAASGFTFSSYAMHWVRQAPGKGLEWVAVISYDGSNKYYADSVKGRFTISRDNSKNTLYLQMNSLRAEDTAVYYCARELGVYSGYDTPFDYWGQGTLVTVSS
VL: DIQMTQSPSSLSASVGDRITITCRASRDIRDDLAWYQQKPGGAPKLLIYAASTLQSGVPSRFSGSGSGTDFTLTISSLQPEDFATYYCLQDSDYPLTFGGGTKLEIKR
notes: also called antibody No. 1
B12: in experiment [7], the binding result is “binds”.

By koff is commonly meant the first-order rate constant of dissociation. For orientation: kon means the rate constant with which the complex forms. A low value points to slow association. Usually EC50 (read off the curve) stands for the concentration needed to bring the measured effect to its halfway point. Low readings indicate higher potency in that assay, high ones lower potency in that assay. Broadly, the EC50 is the concentration at which the effect is half-maximal. A low value points to a more potent agent.
